T1: FcRn-His (Example 11) (Mus musculus (Mouse), UniProt Q61559 22-297; P01887 21-119)
T1 construct: copies: 1 + 1
T1 sequence (alpha): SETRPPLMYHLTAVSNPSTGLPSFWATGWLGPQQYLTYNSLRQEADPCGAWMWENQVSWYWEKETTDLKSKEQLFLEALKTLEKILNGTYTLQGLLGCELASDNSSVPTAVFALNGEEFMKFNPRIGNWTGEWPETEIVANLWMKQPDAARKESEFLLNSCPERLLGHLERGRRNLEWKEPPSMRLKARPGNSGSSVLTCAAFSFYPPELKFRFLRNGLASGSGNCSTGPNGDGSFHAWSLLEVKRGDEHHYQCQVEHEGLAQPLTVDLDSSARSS
T1 sequence (beta): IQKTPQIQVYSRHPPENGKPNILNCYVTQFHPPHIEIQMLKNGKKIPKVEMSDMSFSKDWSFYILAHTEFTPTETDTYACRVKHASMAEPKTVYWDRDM

T2: OX40 on HeLa cells (HeLa-OX40) (Homo sapiens (Human), UniProt P43489 29-277)
T2 sequence: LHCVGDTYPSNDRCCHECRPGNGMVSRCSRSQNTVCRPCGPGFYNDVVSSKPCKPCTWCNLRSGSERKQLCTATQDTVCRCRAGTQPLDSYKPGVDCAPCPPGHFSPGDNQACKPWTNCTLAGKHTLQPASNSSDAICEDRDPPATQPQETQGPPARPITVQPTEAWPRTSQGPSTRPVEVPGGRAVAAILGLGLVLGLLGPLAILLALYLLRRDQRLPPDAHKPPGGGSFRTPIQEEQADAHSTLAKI

B1: recombinant murine CD40 protein (receptor, UniProt P27512 24-193, looked up)
chain: VTCSDKQYLHDGQCCDLCQPGSRLTSHCTALEKTQCHPCDSGEFSAQWNREIRCHQHRHCEPNQGLRVKKEGTAESDTVCTCKEGQHCTSKDCEACAQHTPCIPGFGVMEMATETTDTVCHPCPVGFFSNQSSLFEKCYPWTSCEDKNLEVLQKGTSQTNVICGLKSRMR
notes: also called mCD40
B2: murine PD-1-Fc-OX40L chimeric protein (Fc fusion, UniProt Q02242 25-169, looked up)
chain: LEVPNGPWRSLTFYPAWLTVSEGANATFTCSLSNWSEDLMLNWNRLSPSNQTEKQAAFCNGLSQPVQDARFQIIQLPNRHDFHMNILDTRRNDSGIYLCGAISLHPKAKIEESPGAELVVTERILETSTRYPSPSPKPEGRFQGMSSSPAKDPPIQRLRGAVTRCEDGQLFISSYKNEYQTMEVQNNSVVIKCDGLYIIYLKGSFFQEVKIDLHFREDHNPISIPMLNDGRRIVFTVVASLAFKDKVYLTVNAPDTLCEHLQINDGELIVVQLTPGYCAPEGSYHSTVNQVPL
notes: extracellular domain; also called mPD-1-Fc-OX40L; not shown: Fc linker of the murine construct is not specified
B3: OX40-His (Example 11) (receptor, not shown: small tags and cut ends)
chain: VTARRLNCVKHTYPSGHKCCRECQPGHGMVSRCDHTRDTLCHPCETGFYNEAVNYDTCKQCTQCNHRSGSELKQNCTPTQDTVCRCRPGTQPRQDSGYKLGVDCVPCPPGHFSPGNNQACKPWTNCTLSGKQTRHPASDSLDAVCEDRSLLATLLWETQRPTFRPTTVQSTTVWPRTSELPSPPTLVTPEGP
B4: murine CD172a(SIRPα)-Fc-CD40L chimeric protein (Fc fusion, UniProt P97797 32-373, looked up)
chain: KELKVTQPEKSVSVAAGDSTVLNCTLTSLLPVGPIRWYRGVGPSRLLIYSFAGEYVPRIRNVSDTTKRNNMDFSIRISNVTPADAGIYYCVKFQKGSSEPDTEIQSGGGTEVYVLAKPSPPEVSGPADRGIPDQKVNFTCKSHGFSPRNITLKWFKDGQELHPLETTVNPSGKNVSYNISSTVRVVLNSMDVNSKVICEVAHITLDRSPLRGIANLSNFIRVSPTVKVTQQSPTSMNQVNLTCRAERFYPEDLQLIWLENGNVSRNDTPKNLTKNTDGTYNYTSLFLVNSSAHREDVVFTCQVKHDQQPAITRNHTVLGFAHSSDQGSMQTFPDNNATHNWNHRRLDKVEEEVNLHEDFVFIKKLKRCNKGEGSLSLLNCEEMRRQFEDLVKDITLNKEEKKENSFEMQRGDEDPQIAAHVVSEANSNAASVLQWAKKGYYTMKSNLVMLENGKQLTVKREGLYYVYTQVTFCSNREPSSQRPFIVGLWLKPSSGSERILLKAANTHSSSQLCEQQSVHLGGVFELQAGASVFVNVTEASQVIHRVGFSSFGLLKL
notes: extracellular domain; also called mCD172a(SIRPα)-Fc-CD40L; not shown: Fc linker of the murine construct is not specified
B5: PD-1_IgG4_OX40L (1) (Fc fusion)
chain: LDSPDRPWNPPTFSPALLVVTEGDNATFTCSFSNTSESFVLNWYRMSPSNQTDKLAAFPEDRSQPGQDCRFRVTQLPNGRDFHMSVVRARRNDSGTYLCGAISLAPKAQIKESLRAELRVTERRAEVPTAHPSPSPRPAGQFQSKYGPPCPSCPAPEFLGGPSVFLFPPKPKDTLMISRTPEVTCVVVDVSQEDPEVQFNWYVDGVEVHNAKTKPREEQFNSTYRVVSVLTVLHQDWLSGKEYKCKVSSKGLPSSIEKTISNATGQPREPQVYTLPPSQEEMTKNQVSLTCLVKGFYPSDIAVEWESNGQPENNYKTTPPVLDSDGSFFLYSRLTVDKSSWQEGNVFSCSVMHEALHNHYTQKSLSLSLGKIEGRMDQVSHRYPRIQSIKVQFTEYKKEKGFILTSQKEDEIMKVQNNSVIINCDGFYLISLKGYFSQEVNISLHYQKDEEPLFQLKKVRSVNSLMVASLTYKDKVYLNVTTDNTSLDDFHVNGGELILIHQNPGEFCVL

Experiments:
[1] = target: B4; assay: SPR
FcRn-His (Example 11) = target: T1, FcRn-His (Example 11); assay: SPR, BioRad ProteOn XPR 360, His-tagged target on chip
[2] = target: B2; assay: as above
[3] = target: T3, murine CD40 on CHOK1 cells (murine, UniProt P27512 20-289); assay: flow cytometry on CHOK1/mCD40 cells
T3 construct: whole, on cells; also called mCD40; CHOK1/mCD40
T3 sequence (P27512 20-289): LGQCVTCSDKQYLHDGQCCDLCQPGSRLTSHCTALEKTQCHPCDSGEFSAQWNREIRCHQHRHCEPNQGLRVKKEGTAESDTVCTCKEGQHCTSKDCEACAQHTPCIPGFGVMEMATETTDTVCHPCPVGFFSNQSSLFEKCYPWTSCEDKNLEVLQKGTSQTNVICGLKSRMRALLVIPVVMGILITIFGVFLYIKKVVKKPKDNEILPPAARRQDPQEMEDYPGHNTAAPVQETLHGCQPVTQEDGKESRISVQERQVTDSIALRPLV
Text: Cells were collected, washed, and stained with antibodies for the detection of the chimeric protein binding by flow cytometry.

[4] = target: T2, OX40 on HeLa cells (HeLa-OX40); assay: FACS on HeLa-OX40 cells
[5] = target: PD-L1 on CHO cells (CHO-PD-L1) (Homo sapiens (Human), UniProt Q9NZQ7 19-290); assay: FACS on CHO-PD-L1 cells
PD-L1 on CHO cells (CHO-PD-L1), sequence (Q9NZQ7 19-290 limits assumed, form in doubt): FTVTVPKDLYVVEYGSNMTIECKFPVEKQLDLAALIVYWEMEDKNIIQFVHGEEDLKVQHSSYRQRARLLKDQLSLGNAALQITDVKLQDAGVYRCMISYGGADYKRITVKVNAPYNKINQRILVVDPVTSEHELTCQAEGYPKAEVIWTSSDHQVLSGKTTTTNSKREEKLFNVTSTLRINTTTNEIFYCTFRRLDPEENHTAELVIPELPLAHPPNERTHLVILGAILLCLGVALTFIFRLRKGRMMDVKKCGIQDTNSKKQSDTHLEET

Binder: B1
Kd [1]: 0.756 nM

Binder: B2
Kd (FcRn-His (Example 11)): 55.6 nM
koff (FcRn-His (Example 11)): 0.00262 s⁻¹
kon (FcRn-His (Example 11)): 47200 M⁻¹ s⁻¹

Binder: B3
Kd [2]: 9.62 nM

Binder: B4
EC50 [3]: 20.2 nM

Binder: B5
EC50 [4]: 6 nM
EC50 [5]: 27 nM

Source: US20200222503A1 (published 2020)
